The source of these data is article PMC3432979.

Read-outs that look alike come from different tables or passages of the source.

For assay [1], the target named is HLA-DR1 (DRα1*0101/DRβ1*0101) refolded in the absence of peptide. Kind of assay: IC50 APL stability assay (peptide binding to DR1). As to conditions: read off a plot.
Assay [2] has as its target HLA-DR4 (DRα1*0101/DRβ1*0401) with the influenza hemagglutinin peptide HA306-318 (human | influenza virus). The assay is described as follows: SPR.
Assay [3] addresses HLA-DR1 (DRα1*0101/DRβ1*0101) with the influenza hemagglutinin peptide HA306-318 (human | influenza virus). Kind of assay: SPR. (Surface plasmon resonance follows binding to a sensor surface in real time, without labels.)
Assay [4] addresses HLA-DR4 (DRα1*0101/DRβ1*0401) with the influenza hemagglutinin peptide HA306-318 (human | influenza virus). The assay is described as follows: SPR. This is another data set of the same source.
Assay [5] has as its target HLA-DR1 (DRα1*0101/DRβ1*0101) with the influenza hemagglutinin peptide HA306-318 (human | influenza virus). The assay is described as follows: SPR. This is another data set of the same source.
Assay [6] deals with HLA-DR4 (DRα1*0101/DRβ1*0401) with the influenza hemagglutinin peptide HA306-318 (human | influenza virus). The assay is described as follows: SPR. The source holds these as a separate data set.
Assay [7] shares this target. The assay is described as follows: SPR. The source holds these as a separate data set.
The target of assay [8] is HLA-DR1 (DRα1*0101/DRβ1*0101) with the influenza hemagglutinin peptide HA306-318 (human | influenza virus). Kind of assay: SPR. The source holds these as a separate data set.
Assay [9] addresses HLA-DR4 (DRα1*0101/DRβ1*0401) with the influenza hemagglutinin peptide HA306-318 (human | influenza virus). Kind of assay: SPR. This is another data set of the same source.
For assay [10], the target named is HLA-DR1 (DRα1*0101/DRβ1*0101) with the influenza hemagglutinin peptide HA306-318 (human | influenza virus). The assay is described as follows: SPR. This is another data set of the same source.
Assay [11] shares this target. Kind of assay: SPR. This is another data set of the same source.

As to HA306-318 peptide (wild-type HA) N312S, the half-inhibitory concentration (IC50) in assay [1] (parent: est. 12) came out at 0.012 µM.
For “HA1.7 TCR (soluble, extracellular variable and constant domains with an engineered disulphide link)”, the Kd in [2] came to 291 µM; in [3] it was 36 µM; in [4] it was 48 µM; in [5], 62 µM; in assay [6] it was 89 µM; in assay [7], 55 µM. Further, the Kd in assay [8] worked out at 531 µM; in assay [9], 1270 µM; in assay [10], 204 µM; in assay [11], 28 µM. Also, the dH in assay [8] was 18 kcal/mol; in assay [9], 16 kcal/mol.
As for HA306-318 peptide (wild-type HA) N312T, in assay [1] (parent: est. 12), the 50% inhibitory concentration (IC50) amounted to 0.015 µM.
For HA306-318 peptide (wild-type HA) Y308A, the IC50 in assay [1] (parent: est. 13) was 22 µM.
In the case of HA306-318 peptide (wild-type HA) N312K, the IC50 in assay [1] (parent: est. 12) was 0.018 µM.
On the same count and under the same terms, the result for HA306-318 peptide (wild-type HA) N312Q reads 0.011 µM; that for HA306-318 peptide (wild-type HA) V309R, 0.021 µM; that for HA306-318 peptide (wild-type HA) K310V, 0.01 µM.
Turning to HA306-318 peptide (wild-type HA) K307S, the IC50 in assay [1] (parent: est. 12) was 0.022 µM.
The same measure, in the same setting: the value for HA306-318 peptide (wild-type HA) V309E was 0.03 µM; that for HA306-318 peptide (wild-type HA) K310F was 0.008 µM.
The same measure, in the same setting: the value for HA306-318 peptide (wild-type HA) K315H was 0.013 µM; that for HA306-318 peptide (wild-type HA) N312F was 0.006 µM.

Broadly, the IC50 is the concentration that inhibits the measured activity by half. In general, Kd refers to the free concentration of one partner at which half of the binding sites on the other are occupied at equilibrium, for simple one-to-one binding.
